{"source": "paper PMC11255602", "about": "(Protein Science : A Publication of the Protein Society, 2024)", "proteins": {"B1": {"name": "tetramer interface mutant (TIM) PRMT1 Y262A/Y304A/L341A (enzyme, human (rat sequence humanized by H161Y), UniProt Q99873-3 1-353, looked up)", "chain": "MAAAEAANCIMEVSCGQAESSEKPNAEDMTSKDYYFDSYAHFGIHEEMLKDEVRTLTYRNSMFHNRHLFKDKVVLDVGSGTGILCMFAAKAGARKVIGIECSSISDYAVKIVKANKLDHVVTIIKGKVEEVELPVEKVDIIISEWMGYCLFYESMLNTVLYARDKWLAPDGLIFPDRATLYVTAIEDRQYKDYKIHWWENVYGFDMSCIKDVAIKEPLVDVVDPKQLVTNACLIKEVDIYTVKVEDLTFTSPFCLQVKRNDAVHALVAYFNIEFTRCHKRTGFSTSPESPYTHWKQTVFYMEDALTVKTGEEIFGTIGMRPNAKNNRDLDFTIDLDFKGQACELSCSTDYRMR"}, "B2": {"name": "tetramer interface mutant 2 (TIM2) PRMT1 H64A/R66A/H278A (enzyme, human (rat sequence humanized by H161Y), UniProt Q99873-3 1-353, looked up)", "chain": "MAAAEAANCIMEVSCGQAESSEKPNAEDMTSKDYYFDSYAHFGIHEEMLKDEVRTLTYRNSMFANAHLFKDKVVLDVGSGTGILCMFAAKAGARKVIGIECSSISDYAVKIVKANKLDHVVTIIKGKVEEVELPVEKVDIIISEWMGYCLFYESMLNTVLYARDKWLAPDGLIFPDRATLYVTAIEDRQYKDYKIHWWENVYGFDMSCIKDVAIKEPLVDVVDPKQLVTNACLIKEVDIYTVKVEDLTFTSPFCLQVKRNDYVHALVAYFNIEFTRCAKRTGFSTSPESPYTHWKQTVFYMEDYLTVKTGEEIFGTIGMRPNAKNNRDLDFTIDLDFKGQLCELSCSTDYRMR"}, "B3": {"name": "H293A/E153A (HE) PRMT1 (enzyme, human (rat sequence humanized by H161Y), UniProt Q99873-3 1-353, looked up)", "chain": "MAAAEAANCIMEVSCGQAESSEKPNAEDMTSKDYYFDSYAHFGIHEEMLKDEVRTLTYRNSMFHNRHLFKDKVVLDVGSGTGILCMFAAKAGARKVIGIECSSISDYAVKIVKANKLDHVVTIIKGKVEEVELPVEKVDIIISEWMGYCLFYASMLNTVLYARDKWLAPDGLIFPDRATLYVTAIEDRQYKDYKIHWWENVYGFDMSCIKDVAIKEPLVDVVDPKQLVTNACLIKEVDIYTVKVEDLTFTSPFCLQVKRNDYVHALVAYFNIEFTRCHKRTGFSTSPESPYTAWKQTVFYMEDYLTVKTGEEIFGTIGMRPNAKNNRDLDFTIDLDFKGQLCELSCSTDYRMR"}}}
{"molecular_target": "the molecule itself", "experiment": "native gel or EMSA"}
{"protein": "B1", "stoichiometry N": 2}
{"protein": "B2", "stoichiometry N": 2}
{"protein": "B3", "stoichiometry N": 4}
